The values below come from patent US20180155451A1 (published 2018).

What is called Kd is the equilibrium constant for the complex coming apart. Lower therefore signals higher affinity.

Experiment [1] addresses T1, FcγRIIa type R extracellular domain with C-terminal His tag (human, UniProt P12318 34-217).
T1 construct: extracellular domain; also called FcgRIIa R; FcγRIIa R
T1 sequence (looked up): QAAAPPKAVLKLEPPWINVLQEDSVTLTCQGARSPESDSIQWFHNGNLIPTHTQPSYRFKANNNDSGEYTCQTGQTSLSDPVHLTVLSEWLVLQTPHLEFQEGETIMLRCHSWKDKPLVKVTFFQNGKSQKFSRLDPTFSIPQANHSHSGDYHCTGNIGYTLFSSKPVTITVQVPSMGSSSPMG
Nature of the experiment: SPR (Biacore T100), antibody captured on antigen-peptide chip, FcγR analyte, 1:1 Langmuir fit. The procedure:
(§1) These antibodies were assessed for the binding activity to each FcγR according to the method described in Reference Example 2.
(§2) Analysis of interaction between objective antibody and the FcγR was carried out using Biacore T100 (GE Healthcare). HBS-EP+ (GE Healthcare) was used as the running buffer, and the measurement temperature was set to 25° C. Chips produced by immobilizing the antigen peptide by the amine coupling method to a Series S Sencor Chip CM5 (GE Healthcare), or alternatively, chips produced by allowing preliminarily biotinylated antigen peptides to interact with and immobilize onto a Series S Sensor Chip SA (certified) (GE Healthcare) were used. Antibodies of interest were captured onto an antigen peptide-immobilized chip, and allowed to interact to each FcγR diluted with running buffer. To regenerate and repeatedly use the chip, the antibodies captured on the chip were washed off by reacting 10 mM glycine-HCl, pH 1.5.
(§3) The FcγR-binding activity of each antibody was assessed primarily using as an indicator the FcγR-binding activity and dissociation constant for FcγR.
Background: SPR reads the build-up and loss of mass on a sensor chip optically.

In experiment [2] the target is T2, FcγRIIIa type V extracellular domain with C-terminal His tag (human, UniProt P08637 17-208).
T2 construct: extracellular domain; also called FcgRIIIa V; FcγRIIIa V
T2 sequence (P08637 17-208 F176V): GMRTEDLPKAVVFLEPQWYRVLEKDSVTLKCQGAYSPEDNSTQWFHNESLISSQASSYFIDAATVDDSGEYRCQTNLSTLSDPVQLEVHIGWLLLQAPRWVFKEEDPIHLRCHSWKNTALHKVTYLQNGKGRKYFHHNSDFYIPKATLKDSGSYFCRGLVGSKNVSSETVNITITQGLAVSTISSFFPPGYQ
Described as above. The procedure:
as §1, §2, §3

In experiment [3] the target is T3, FcγRIa extracellular domain with C-terminal His tag (human, UniProt P12314 16-292).
T3 construct: extracellular domain; also called FcgRIa; FcgRI
T3 sequence (P12314 16-292): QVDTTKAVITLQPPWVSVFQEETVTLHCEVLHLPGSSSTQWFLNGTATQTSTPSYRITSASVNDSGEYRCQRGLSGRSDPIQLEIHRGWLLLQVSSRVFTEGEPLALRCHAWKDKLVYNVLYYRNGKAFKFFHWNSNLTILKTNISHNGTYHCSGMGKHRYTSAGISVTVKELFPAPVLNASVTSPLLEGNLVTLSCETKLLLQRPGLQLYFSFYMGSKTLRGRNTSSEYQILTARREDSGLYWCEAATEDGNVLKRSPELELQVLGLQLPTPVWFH
The experiment is described as above. The procedure: as §1, §2, §3

Experiment [4] concerns the target T4, FcγRIIb extracellular domain with C-terminal His tag (human, UniProt P31994 43-217).
T4 construct: extracellular domain; also called FcgRIIb
T4 sequence (looked up): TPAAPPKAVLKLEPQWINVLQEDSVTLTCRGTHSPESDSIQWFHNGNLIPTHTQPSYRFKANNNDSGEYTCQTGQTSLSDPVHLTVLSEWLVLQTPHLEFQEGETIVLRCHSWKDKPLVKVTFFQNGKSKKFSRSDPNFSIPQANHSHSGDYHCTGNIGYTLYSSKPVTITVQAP
The description is as above. How it is done:
as §1, §2, §3

The target of experiment [5] is T5, FcγRIIIa type F extracellular domain with C-terminal His tag (human, UniProt P08637 17-208).
T5 construct: extracellular domain; also called FcgRIIIa F; FcγRIIIa F
T5 sequence (P08637 17-208): as the sequence (P08637 17-208 F176V) above, with V160F counted along it
The description is as above. How it is done:
as §1, §2, §3

Experiment [6] deals with T6, FcγRIIa type H extracellular domain with C-terminal His tag (human, UniProt P12318 34-217).
T6 construct: extracellular domain; also called FcgRIIa H; FcγRIIa H
T6 sequence (looked up): T1 sequence (looked up) with R134H
The description is as above. The procedure: as §1, §2, §3

In experiment [7] the target is T1, FcγRIIa type R extracellular domain …. Briefly: SPR (Biacore T100), ratio of KD values. How it is done:
as §1, §2, §3

Experiment [8] addresses T2, FcγRIIIa type V extracellular domain …. Briefly: SPR (Biacore T100), ratio of KD values. The procedure: as §1, §2, §3
In experiment [9] the target is T3, FcγRIa extracellular domain with …. Briefly: SPR (Biacore T100), ratio of KD values. How it is done: as §1, §2, §3
The target in experiment [10] is T4, FcγRIIb extracellular domain with …. Nature of the experiment: SPR (Biacore T100), ratio of KD values. The procedure:
as §1, §2, §3

Experiment [11] addresses T5, FcγRIIIa type F extracellular domain …. Briefly: SPR (Biacore T100), ratio of KD values. The procedure:
as §1, §2, §3

Experiment [12] concerns the target T6, FcγRIIa type H extracellular domain …. Briefly: SPR (Biacore T100), ratio of KD values. The procedure: as §1, §2, §3
Experiment [13] deals with T7, FcgRIIa H extracellular domain with C-terminal His tag (human, UniProt P12318 34-217).
T7 construct: extracellular domain; also called FcγRIIa H; FcγRIIa type H; not shown: His tag attached to the C terminus
T7 sequence (looked up): T1 sequence (looked up) with R134H
Briefly: ratio of SPR (Biacore) KDs, FcγRIIb as reference; antibody captured on chip, FcγR as analyte. The procedure: as §1, §2, §3

The target in experiment [14] is T8, FcgRIIa R extracellular domain with C-terminal His tag (human, UniProt P12318 34-217).
T8 construct: extracellular domain; also called FcγRIIa R; FcγRIIa type R; not shown: His tag attached to the C terminus
T8 sequence (looked up): T1 sequence (looked up)
Described as above. How it is done:
as §1, §2, §3

Positions count from the first letter of the chain named. Names and notes keep the numbering of the source.

B1: GpH7-Kn045/GpH7-Hl055/GpL16-k0 (antibody, human IgG1, kappa)
heavy 1: QVQLVQSGAEVKKPGASVTVSCKASGYTFTDYEMHWIRQPPGEGLEWIGAIDPKTGDTAYSESFQDRVTLTADKSTSTAYMELSSLTSEDTAVYYCTRFYSYTYWGQGTLVTVSSASTKGPSVFPLAPSSKSTSGGTAALGCLVKDYFPEPVTVSWNSGALTSGVHTFPAVLQSSGLYSLSSVVTVPSSSLGTQTYICNVNHKPSNTKVDKKVEPKSCDKTHTCPPCPAPEYYAGPSVFLFPPKPKDTLMISRTPEVTCVVVDVSDEDPEVKFNWYVDGVEVHNAKTKPREEQYNATYRVVSVLTVLHQDWLNGKEYKCKVSNKALPAPIEKTISKAKGQPREPQVCTLPPSRDELTKNQVSLWCLVKGFYPSDIAVEWESNGQPENNYKTTPPVLDSDGSFFLYSKLTVDKSRWQQGNVFSCSVMHEALHNHYTQKSLSLSP
heavy 2: QVQLVQSGAEVKKPGASVTVSCKASGYTFTDYEMHWIRQPPGEGLEWIGAIDPKTGDTAYSESFQDRVTLTADKSTSTAYMELSSLTSEDTAVYYCTRFYSYTYWGQGTLVTVSSASTKGPSVFPLAPSSKSTSGGTAALGCLVKDYFPEPVTVSWNSGALTSGVHTFPAVLQSSGLYSLSSVVTVPSSSLGTQTYICNVNHKPSNTKVDKKVEPKSCDKTHTCPPCPAPELLAGPDVFLFPPKPKDTLMISRTPEVTCVVVDVSHEDPEVKFNWYVDGVEVHNAKTKPREELYNSTYRVVSVLTVLHQDWLNGKEYKCKVSNKALPMPEEKTISKAKGQPREPQVYTLPPSRCELTKNQVSLSCAVKGFYPSDIAVEWESNGQPENNYKTTPPVLDSDGSFFLVSKLTVDKSRWQQGNVFSCSVMHEALHNHYTQKSLSLSP
light: DIVMTQSPLSLPVTPGEPASISCQASESLVHSNRNTYLHWYLQKPGQSPQLLIYKVSNRFSGVPDRFSGSGSGTDFTLKISRVEAEDVGVYYCSQNTHVPPTFGQGTKVEIERTVAAPSVFIFPPSDEQLKSGTASVVCLLNNFYPREAKVQWKVDNALQSGNSQESVTEQDSKDSTYSLSSTLTLSKADYEKHKVYACEVTHQGLSSPVTKSFNRGEC
notes: Heterodimerized anti-glypican-3 IgG1; also called Kn045/Hl055
As for B1, the Kd in [1] was found to be 13 nM; in experiment [2], 0.72 nM; in [3] it was 0.019 nM; in experiment [4] it was 240 nM; in [5], 1.6 nM; in [6] it was 29 nM. Also, the KD ratio in experiment [7] was 56 fold (KD of GpH7-Kn033/GpH7-Hl033/GpL16-k0 divided by KD of this antibody); in experiment [8], 300 fold (KD of GpH7-Kn033/GpH7-Hl033/GpL16-k0 divided by KD of this antibody); in experiment [9], 3.7 fold (KD of GpH7-Kn033/GpH7-Hl033/GpL16-k0 divided by KD of this antibody); in experiment [10], 15 fold (KD of GpH7-Kn033/GpH7-Hl033/GpL16-k0 divided by KD of this antibody); in [11] it was 985 fold (KD of GpH7-Kn033/GpH7-Hl033/GpL16-k0 divided by KD of this antibody); in [12], 21 fold (KD of GpH7-Kn033/GpH7-Hl033/GpL16-k0 divided by KD of this antibody).

B2: GpH7-Kn033/GpH7-Hl033/GpL16-k0 (antibody, human IgG1, kappa)
heavy 1: not shown
heavy 2: not shown
light: B1 light
notes: Anti-glypican-3 IgG1 with knobs-into-holes only (knob Y349C/T366W; hole D356C/T366S/L368A/Y407V); also called Kn033/Hl033
As for B2, the “A/I ratio (KD for FcγRIIb / KD for FcγRIIa H)” value in experiment [13] was 6.2. Also, the “A/I ratio (KD for FcγRIIb / KD for FcγRIIa R)” value in [14] turned out to be 4.9.

B3: GpH7-Kn045/GpH7-Hl048/GpL16-k0 (antibody, human IgG1, kappa)
heavy 1: B1 heavy 1
heavy 2: B1 heavy 2 with L293Q, M328K
light: B1 light
notes: Knob chain L234Y/L235Y/G236A/H268D/S298A; hole chain G236A/S239D/A330K/I332E; also called Kn045/Hl048
Regarding B3, the “A/I ratio (KD for FcγRIIb / KD for FcγRIIa H)” value in experiment [13] came out at 9.5. Moreover, in experiment [14], the “A/I ratio (KD for FcγRIIb / KD for FcγRIIa R)” value came to 22.

B4: GpH7-Kn037/GpH7-Hl036/GpL16-k0 (antibody, human IgG1, kappa)
heavy 1: B1 heavy 1 with Y232L, Y233L, S237D, D266H, A296S, I330E
heavy 2: B1 heavy 2 with L293Q, M328A
light: B1 light
notes: G236A/S239D/I332E in both H chains (called homodimerized); also called Kn037/Hl036
As to B4, the “A/I ratio (KD for FcγRIIb / KD for FcγRIIa H)” value in experiment [13] was found to be 8.6. Also, the “A/I ratio (KD for FcγRIIb / KD for FcγRIIa R)” value in [14] is 13.

B5: GpH7-Kn045/GpH7-Hl055/GpL16-k0 (antibody, human IgG1, kappa)
heavy 1: B1 heavy 1
heavy 2: B1 heavy 2
light: B1 light
notes: Knob chain L234Y/L235Y/G236A/H268D/S298A; hole chain G236A/S239D/Q295L/A330M/I332E; also called Kn045/Hl055
For B5, the “A/I ratio (KD for FcγRIIb / KD for FcγRIIa H)” value in [13] is 8.3. Further, the “A/I ratio (KD for FcγRIIb / KD for FcγRIIa R)” value in experiment [14] was 18.

B6: GpH7-Kn032/GpH7-Hl032/GpL16-k0 (antibody, human IgG1, kappa)
heavy 1: B1 heavy 2 with A234G, L293Q, M328L, Y347C, C354D, S364W, A366L, V405Y
heavy 2: B1 heavy 2 with A234G, L293Q, M328L
light: B1 light
notes: S239D/A330L/I332E in both H chains (called homodimerized); also called Kn032/Hl032
As to B6, in experiment [13], the “A/I ratio (KD for FcγRIIb / KD for FcγRIIa H)” value turned out to be 0.93. For the same molecule, the “A/I ratio (KD for FcγRIIb / KD for FcγRIIa R)” value in [14] was 1.8.

B7: GpH7-Kn056/GpH7-Hl055/GpL16-k0 (antibody, human IgG1, kappa)
heavy 1: B1 heavy 1 with Q293L
heavy 2: B1 heavy 2
light: B1 light
notes: Heterodimerized anti-glypican-3 IgG1; also called Kn056/Hl055
Regarding B7, the Kd came out at 17 nM in experiment [1]; 0.66 nM in [2]; 0.023 nM in [3]; 260 nM in experiment [4]; 1.4 nM in experiment [5]; 30 nM in experiment [6]. For the same molecule, the KD ratio is 44 fold (KD of GpH7-Kn033/GpH7-Hl033/GpL16-k0 divided by KD of this antibody) in experiment [7]; 327 fold (KD of GpH7-Kn033/GpH7-Hl033/GpL16-k0 divided by KD of this antibody) in experiment [8]; 2.9 fold (KD of GpH7-Kn033/GpH7-Hl033/GpL16-k0 divided by KD of this antibody) in experiment [9]; 14 fold (KD of GpH7-Kn033/GpH7-Hl033/GpL16-k0 divided by KD of this antibody) in [10]; 1110 fold (KD of GpH7-Kn033/GpH7-Hl033/GpL16-k0 divided by KD of this antibody) in [11]; 20 fold (KD of GpH7-Kn033/GpH7-Hl033/GpL16-k0 divided by KD of this antibody) in experiment [12].

B8: GpH7-Kn056/GpH7-Hl055/GpL16-k0 (antibody, human IgG1, kappa)
heavy 1: B1 heavy 1 with Q293L
heavy 2: B1 heavy 2
light: B1 light
notes: Knob chain L234Y/L235Y/G236A/H268D/Q295L/S298A; hole chain G236A/S239D/Q295L/A330M/I332E; also called Kn056/Hl055
Regarding B8, the “A/I ratio (KD for FcγRIIb / KD for FcγRIIa H)” value in [13] turned out to be 8.7. Besides, the “A/I ratio (KD for FcγRIIb / KD for FcγRIIa R)” value in experiment [14] came to 16.
